Reference: patent publication US10301358B2, “Collagen imaging compositions” (Collagen Medical, LLC, priority 2015, dated 2019)
“Also recorded” adds a separate entry of the source. Bridge positions count the residues as written; N and C are the ends. Ends that are not written are not given here.

Key:
Pharmacokinetics (Rat) = type: in vivo, Sprague Dawley rats; settings: 1.3 umol/kg bolus IV, plasma sampled 2-90 minutes post-injection, ICP-MS
Protocol: Compound ID No. 1 is formulated at pH 7.5 (TRIS buffer) and administered to Sprague Dawley rats (n=2) at dose of 1.3 umol/kg using a bolus IV injection. Plasma is sampled at 2, 5, 15, 30, and 90 minutes post-injection and analyzed for manganese content using ICP-MS.

[1] = Myocardial perfusion imaging, canine LAD occlusion/reperfusion model; type: in vivo
Protocol: To mimic severe ischemia, a canine model is used in which an inflatable variable vascular occluder is placed around the left anterior descending coronary artery (LAD) to allow occlusion and reperfusion. Imaging is performed on a 3T clinical scanner 4 days after implantation of the occluder. The conventional saturation recovery pulse sequence for stress perfusion imaging is compared with a segmented inversion method. The purpose of the segmented inversion method is to leverage the steady-state properties of Compound ID No. 1. This segmented inversion recovery pulse sequence provides greater T1 weighting, higher spatial resolution, and greater myocardial tissue contrast. Additionally, since imaging is delayed, the entire heart can be imaged. After baseline MRI scanning, the balloon is inflated. […]
To assess relative perfusion, labeled microspheres are administered at 3 timepoints in the study. […] At autopsy under ultraviolet light, the hypo-perfused myocardium is differentiated from normal myocardium due to the lack of fluorescence in the hypo-perfused tissue. Based on the fluorescence, a sample of the ischemic territory and a sample of the remote myocardium are taken for ex vivo analysis. These tissue samples are weighed, digested in nitric acid, and analyzed for the elements La, Au, Lu (the three microsphere injections) and manganese (Compound ID No. 1) using ICP-MS. […]

[2] = Uptake into fibrotic liver tissue, bile duct ligated (BDL) rats; type: in vivo, Sprague-Dawley rats; settings: ~7.5 μmol/kg, sacrifice after 90 min, BDL vs sham
Protocol: Bile duct ligated (BDL) rats are selected to assess the uptake of the complexes in fibrotic liver tissue as compared to sham operated animals. In this model, the common bile duct is surgically tied off and the resultant cholestasis results in fibrosis around the bile ducts. Laparotomy is performed in Sprague-Dawley rats with double ligation of the common bile duct with a section between the two ligatures (2-3% isoflurane anesthesia). […] Fibrosis is evident 15 days after ligation and increases with time up to 30 days after ligation, providing defined endpoints for imaging of moderate and severe fibrosis.
Studies are conducted by injecting Compound ID. No. 1 at a dose ˜7.5 μmol/kg. After 90 min, the animals are sacrificed and the 4 liver lobes and abdominal muscle are removed and the manganese concentration quantified by ICP-MS and collagen content quantified using hydroxyproline concentration.

collagen = target: T1, collagen (Rattus norvegicus, UniProt P02454+P02466); test: Uptake into fibrotic myocardial tissue, rat model of healed myocardial infarction; type: in vivo, Sprague Dawley rats; settings: ~1 umol/kg, 3 weeks following infarction, sacrifice 60 minutes post-injection, tissue manganese
T1 construct: from tissue; host or cells: rat heart (normal and infarcted myocardium), in vivo
Protocol: Tissue samples from normal myocardium and infarcted myocardium are analyzed for manganese and hydroxyproline (collagen) content.

T1 sequence (P02454 152-1207): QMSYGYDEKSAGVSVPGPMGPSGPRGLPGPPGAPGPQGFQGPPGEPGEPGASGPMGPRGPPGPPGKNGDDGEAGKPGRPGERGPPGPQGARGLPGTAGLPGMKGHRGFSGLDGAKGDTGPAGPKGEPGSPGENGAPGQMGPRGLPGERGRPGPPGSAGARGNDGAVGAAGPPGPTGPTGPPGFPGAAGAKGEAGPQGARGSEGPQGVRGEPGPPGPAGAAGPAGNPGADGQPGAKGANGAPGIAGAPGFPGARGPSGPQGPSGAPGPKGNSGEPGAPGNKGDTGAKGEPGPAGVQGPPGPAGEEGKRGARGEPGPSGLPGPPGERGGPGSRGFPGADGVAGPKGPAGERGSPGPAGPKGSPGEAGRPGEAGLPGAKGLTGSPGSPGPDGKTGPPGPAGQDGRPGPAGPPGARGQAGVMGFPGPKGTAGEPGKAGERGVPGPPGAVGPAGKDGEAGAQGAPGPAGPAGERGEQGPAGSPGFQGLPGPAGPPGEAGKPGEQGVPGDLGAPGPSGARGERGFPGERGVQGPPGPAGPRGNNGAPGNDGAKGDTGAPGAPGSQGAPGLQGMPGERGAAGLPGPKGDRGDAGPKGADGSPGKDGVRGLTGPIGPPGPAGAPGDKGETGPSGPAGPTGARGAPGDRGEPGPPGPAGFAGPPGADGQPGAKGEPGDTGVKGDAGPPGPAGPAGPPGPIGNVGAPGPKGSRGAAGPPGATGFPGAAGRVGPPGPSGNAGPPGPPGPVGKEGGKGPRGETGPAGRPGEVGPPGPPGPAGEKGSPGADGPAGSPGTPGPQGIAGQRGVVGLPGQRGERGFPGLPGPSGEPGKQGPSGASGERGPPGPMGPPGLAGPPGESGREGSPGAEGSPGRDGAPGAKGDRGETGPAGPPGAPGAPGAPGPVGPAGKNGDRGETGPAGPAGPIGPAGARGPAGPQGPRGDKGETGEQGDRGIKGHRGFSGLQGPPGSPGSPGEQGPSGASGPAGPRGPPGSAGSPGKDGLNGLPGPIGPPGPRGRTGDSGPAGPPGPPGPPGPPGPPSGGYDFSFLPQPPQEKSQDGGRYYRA
T1 sequence (P02466 86-1125): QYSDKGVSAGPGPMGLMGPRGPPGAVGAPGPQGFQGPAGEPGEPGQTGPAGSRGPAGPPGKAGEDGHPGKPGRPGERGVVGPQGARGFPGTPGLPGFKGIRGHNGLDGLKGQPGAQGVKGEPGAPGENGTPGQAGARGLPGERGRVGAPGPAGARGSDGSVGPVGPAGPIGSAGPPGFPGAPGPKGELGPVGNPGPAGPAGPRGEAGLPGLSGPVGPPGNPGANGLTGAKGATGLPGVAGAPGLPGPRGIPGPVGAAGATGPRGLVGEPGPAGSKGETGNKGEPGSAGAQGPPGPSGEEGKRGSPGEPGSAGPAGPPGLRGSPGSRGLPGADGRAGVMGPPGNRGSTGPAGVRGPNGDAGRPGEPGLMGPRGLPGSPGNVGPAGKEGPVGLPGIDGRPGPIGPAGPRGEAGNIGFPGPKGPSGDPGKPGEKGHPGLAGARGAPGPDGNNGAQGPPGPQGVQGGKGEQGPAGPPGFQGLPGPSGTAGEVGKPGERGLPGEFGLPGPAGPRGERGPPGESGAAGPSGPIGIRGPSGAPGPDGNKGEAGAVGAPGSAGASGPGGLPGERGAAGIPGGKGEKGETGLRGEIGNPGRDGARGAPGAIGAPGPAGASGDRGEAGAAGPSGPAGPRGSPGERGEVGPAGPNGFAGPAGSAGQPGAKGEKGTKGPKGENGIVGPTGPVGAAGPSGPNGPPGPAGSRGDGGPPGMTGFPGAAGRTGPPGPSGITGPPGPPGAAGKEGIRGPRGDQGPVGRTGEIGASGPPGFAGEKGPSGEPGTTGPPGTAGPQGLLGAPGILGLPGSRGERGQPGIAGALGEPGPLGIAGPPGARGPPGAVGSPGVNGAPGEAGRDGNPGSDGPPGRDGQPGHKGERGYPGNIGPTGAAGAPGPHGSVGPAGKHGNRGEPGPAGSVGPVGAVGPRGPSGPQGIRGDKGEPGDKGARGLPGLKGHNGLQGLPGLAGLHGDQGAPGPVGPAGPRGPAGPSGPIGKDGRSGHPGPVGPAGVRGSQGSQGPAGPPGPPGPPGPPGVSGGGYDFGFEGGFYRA

Substance | pharmacokinetic profile (plasma manganese content) (Pharmacokinetics (Rat)) | MR visualization of myocardial perfusion defect ([1]; 7.5 μmol/kg i.v. bolus one minute after coronary artery occlusion, 3T scanner, listed as 1) | Mn concentration in ischemic vs normal myocardium ex vivo ([1]; 7.5 μmol/kg i.v., sacrifice ca. 120 minutes post injection, ICP-MS) | uptake into fibrotic liver tissue (manganese vs hydroxyproline) [2] | uptake in normal vs. scarred myocardium (collagen)
Compound ID No. 1: MnCDTAGA conjugate of cyclic collagen binding peptide SEQ ID No. 1 (G-K-W-H-C-T-T-K-F-P-H-H-Y-C-L-Y-Bip), amidated C-terminus; FIG. 1 (GKWHCTTKFPHHYCLY; MnCDTAGA conjugate; cyclic disulfide; C-terminal amide) | rapid initial blood clearance | readily visualized; also recorded: positive image contrast in the normally perfused myocardium | preferential deposition in normal vs ischemic cardiac tissue | consistent with uptake of Compound ID No. 1 into fibrotic-rich liver tissue | greater binding in fibrotic cardiac tissue as compared with normal myocardial tissue
Compound ID No. 2: MnCDTAGA linked to terminal nitrogen and lysine epsilon amino groups of peptide SEQ ID No. 2, C-terminus —NH2 amide; FIG. 2 (MnCDTAGA-K(MnCDTAGA)WHCTTK(MnCDTAGA)FPHHYCLY; disulfide 4-13 (inferred); not fully specified (C-terminus); printed as K-W-H-C-T-T-K-F-P-H-H-Y-C-L-Y-Bip) | – | – | – | – | greater binding in fibrotic cardiac tissue as compared with normal myocardial tissue
Compound ID No. 4: MnCDTAGA linked to terminal nitrogen or lysine epsilon amino groups of peptide SEQ ID No. 4, C-terminus —NH2 amide; FIG. 4 (KWHCYTKFPHHYCVY; disulfide 4-13 (inferred); not fully specified (C-terminus); printed as K-W-H-C-Y-T-K-F-P-H-H-Y-C-V-Y-Bip; also: MnCDTAGA on N-terminal amine or lysine ε-amino group) | – | – | – | – | greater binding in fibrotic cardiac tissue as compared with normal myocardial tissue
